Data taken from paper PMC5951680.

Molecular target: zebrafish TRPC4 (TRPC4DR) (Danio rerio (zebrafish))
Test: cryo-EM structure; TRPC4DR in amphipols A8-35, unliganded (apo), closed state; buffer C (PBS pH 7.4, 1 mM TCEP); 0.25 mg/ml on the grid; C4 symmetry imposed; 3.6 Å

zebrafish TRPC4 (TRPC4DR) (natural protein)
stoichiometry N: 4
